Numbering of substitutions follows the chain as printed. Numbers in names are those of the source.
B1: DDR1 V408C (in the C287S background) (receptor, human, UniProt Q08345 19-913, looked up)
chain: DADMKGHFDPAKCRYALGMQDRTIPDSDISASSSWSDSTAARHSRLESSDGDGAWCPAGSVFPKEEEYLQVDLQRLHLVALVGTQGRHAGGLGKEFSRSYRLRYSRDGRRWMGWKDRWGQEVISGNEDPEGVVLKDLGPPMVARLVRFYPRADRVMSVCLRVELYGCLWRDGLLSYTAPVGQTMYLSEAVYLNDSTYDGHTVGGLQYGGLGQLADGVVGLDDFRKSQELRVWPGYDYVGWSNHSFSSGYVEMEFEFDRLRAFQAMQVHSNNMHTLGARLPGGVECRFRRGPAMAWEGEPMRHNLGGNLGDPRARAVSVPLGGRVARFLQCRFLFAGPWLLFSEISFISDVVNNSSPALGGTFPPAPWWPPGPPPTNFSSLELEPRGQQPCAKAEGSPTAILIGCLVAIILLLLLIIALMLWRLHWRRLLSKAERRVLEEELTVHLSVPGDTILINNRPGPREPPPYQEPRPRGNPPHSAPCVPNGSALLLSNPAYRLLLATYARPPRGPGPPTPAWAKPTNTQAYSGDYMEPEKPGAPLLPPPPQNSVPHYAEADIVTLQGVTGGNTYAVPALPPGAVGDGPPRVDFPRSRLRFKEKLGEGQFGEVHLCEVDSPQDLVSLDFPLNVRKGHPLLVAVKILRPDATKNARNDFLKEVKIMSRLKDPNIIRLLGVCVQDDPLCMITDYMENGDLNQFLSAHQLEDKAAEGAPGDGQAAQGPTISYPMLLHVAAQIASGMRYLATLNFVHRDLATRNCLVGENFTIKIADFGMSRNLYAGDYYRVQGRAVLPIRWMAWECILMGKFTTASDVWAFGVTLWEVLMLCRAQPFGQLTDEQVIENAGEFFRDQGRQVYLSRPPACPQGLYELMLRCWSRESEQRPPFSQLHRFLAEDALNTV
notes: discoidin domain receptor 1, isoform DDR1b, human; full-length cDNA in pRK5; source: HEK293, transiently transfected, in lysate
B2: DDR1 residue 410 to cysteine (in the C287S background) (receptor, human, UniProt Q08345 19-913, looked up)
chain: B1 chain with C390V, K392C
notes: discoidin domain receptor 1, isoform DDR1b, human; full-length cDNA in pRK5; The text gives only the range V408C to A417C (10 single mutants); also called one of the 10 mutants V408C to A417C; source: HEK293, transiently transfected, in lysate
B3: DDR1 residue 411 to cysteine (in the C287S background) (receptor, human, UniProt Q08345 19-913, looked up)
chain: B1 chain with C390V, A393C
notes: as for B2
B4: DDR1 residue 409 to cysteine (in the C287S background) (receptor, human, UniProt Q08345 19-913, looked up)
chain: B1 chain with C390V, A391C
notes: as for B2
B5: DDR1 residue 413 to cysteine (in the C287S background) (receptor, human, UniProt Q08345 19-913, looked up)
chain: B1 chain with C390V, G395C
notes: as for B2
B6: DDR1 residue 414 to cysteine (in the C287S background) (receptor, human, UniProt Q08345 19-913, looked up)
chain: B1 chain with C390V, S396C
notes: as for B2
B7: DDR1 E412C (in the C287S background) (receptor, human, UniProt Q08345 19-913, looked up)
chain: B1 chain with C390V, E394C
notes: as for B1

Molecular target: the molecule itself
Assay: cross-linking; disulfide cross-linking of introduced cysteines in transiently transfected HEK293 cells, untreated or with 10 ug/ml collagen I for 90 min at 37 °C; lysis in 1% Nonidet P-40 buffer with NEM; nonreducing SDS-PAGE on 5% gels, Western blot with anti-DDR1; efficiency as percent dimeric of total DDR1

Dimerization efficiency (percent dimeric of total DDR1), > 70%:
B1
B2
B3
B4
B5
B6
B7
